Measurements reported in EP2785382B1 (IBC Pharmaceuticals, Inc., dated 2019).

Key:
IGF-1R on cells (human) [1] = target: IGF-1R on cells (human) (UniProt P08069); experiment: cell-based or functional assay
IGF-1R on cells (human) [2] = target: IGF-1R on cells (human) (UniProt P08069); experiment: 125I-IGF-1 binding to MCF-7L cells with antibody at 1000 ng/mL
IGF-1R on cells (human) [3] = target: IGF-1R on cells (human) (UniProt P08069); experiment: 125I-IGF-1 binding to MCF-7L cells with antibody at 100 ng/mL
IGF-1R on cells (human) [4] = target: IGF-1R on cells (human) (UniProt P08069); experiment: flow cytometry (FACScan), ME-180 cells
[5] = target: T1, recombinant human IGF-1R (R&D Systems, Catalog # 391-GR) (human, UniProt P08069 31-935); experiment: rhIGF-1R on polystyrene beads (not shown)
T1 construct: extracellular domain; immobilized on ELISA plates or polystyrene beads; also called rhIGF-1R; IGF-1R-coated beads
T1 sequence (P08069 31-935): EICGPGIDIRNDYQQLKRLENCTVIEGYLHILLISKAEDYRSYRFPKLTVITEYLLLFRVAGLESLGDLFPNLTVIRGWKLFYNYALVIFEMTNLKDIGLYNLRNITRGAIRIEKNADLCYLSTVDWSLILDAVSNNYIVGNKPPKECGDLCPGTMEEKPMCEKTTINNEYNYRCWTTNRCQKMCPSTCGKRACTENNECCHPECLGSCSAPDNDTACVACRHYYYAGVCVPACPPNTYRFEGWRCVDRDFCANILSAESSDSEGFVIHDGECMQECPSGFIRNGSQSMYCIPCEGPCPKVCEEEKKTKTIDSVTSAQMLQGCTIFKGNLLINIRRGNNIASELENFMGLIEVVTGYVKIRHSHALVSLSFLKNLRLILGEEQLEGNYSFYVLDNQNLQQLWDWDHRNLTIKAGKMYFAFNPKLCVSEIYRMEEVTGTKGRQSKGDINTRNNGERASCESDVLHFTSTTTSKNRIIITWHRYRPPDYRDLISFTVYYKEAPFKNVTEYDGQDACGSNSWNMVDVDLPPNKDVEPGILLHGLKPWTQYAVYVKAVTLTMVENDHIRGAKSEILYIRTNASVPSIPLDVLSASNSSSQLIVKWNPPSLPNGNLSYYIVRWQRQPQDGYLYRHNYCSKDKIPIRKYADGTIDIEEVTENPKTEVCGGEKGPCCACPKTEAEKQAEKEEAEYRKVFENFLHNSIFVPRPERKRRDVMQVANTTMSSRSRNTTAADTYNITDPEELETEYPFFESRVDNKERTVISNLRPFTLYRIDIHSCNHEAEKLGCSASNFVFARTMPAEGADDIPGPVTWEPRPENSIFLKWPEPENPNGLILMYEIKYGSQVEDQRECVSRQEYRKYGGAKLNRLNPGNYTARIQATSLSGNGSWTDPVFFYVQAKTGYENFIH

IGF-1R on cells (human) [6] = target: IGF-1R on cells (human) (UniProt P08069); experiment: flow cytometry (FACScan), MCF-7 cells
IGF-1R on cells (human) [7] = target: IGF-1R on cells (human) (UniProt P08069); experiment: flow cytometry (FACScan), DU 145 cells
[8] = target: recombinant human IGF-1R (R&D Systems, Catalog # 391-GR) (human) (UniProt P08069); experiment: ELISA on immobilized rhIGF-1R (not shown); cR1 from clones 709.2D2 and 710.2G2, same affinity
Sequence of recombinant human IGF-1R (R&D Systems, Catalog # 391-GR) (human) (P08069 31-935): as above

Sequence of IGF-1R on cells (human) (P08069 31-1367): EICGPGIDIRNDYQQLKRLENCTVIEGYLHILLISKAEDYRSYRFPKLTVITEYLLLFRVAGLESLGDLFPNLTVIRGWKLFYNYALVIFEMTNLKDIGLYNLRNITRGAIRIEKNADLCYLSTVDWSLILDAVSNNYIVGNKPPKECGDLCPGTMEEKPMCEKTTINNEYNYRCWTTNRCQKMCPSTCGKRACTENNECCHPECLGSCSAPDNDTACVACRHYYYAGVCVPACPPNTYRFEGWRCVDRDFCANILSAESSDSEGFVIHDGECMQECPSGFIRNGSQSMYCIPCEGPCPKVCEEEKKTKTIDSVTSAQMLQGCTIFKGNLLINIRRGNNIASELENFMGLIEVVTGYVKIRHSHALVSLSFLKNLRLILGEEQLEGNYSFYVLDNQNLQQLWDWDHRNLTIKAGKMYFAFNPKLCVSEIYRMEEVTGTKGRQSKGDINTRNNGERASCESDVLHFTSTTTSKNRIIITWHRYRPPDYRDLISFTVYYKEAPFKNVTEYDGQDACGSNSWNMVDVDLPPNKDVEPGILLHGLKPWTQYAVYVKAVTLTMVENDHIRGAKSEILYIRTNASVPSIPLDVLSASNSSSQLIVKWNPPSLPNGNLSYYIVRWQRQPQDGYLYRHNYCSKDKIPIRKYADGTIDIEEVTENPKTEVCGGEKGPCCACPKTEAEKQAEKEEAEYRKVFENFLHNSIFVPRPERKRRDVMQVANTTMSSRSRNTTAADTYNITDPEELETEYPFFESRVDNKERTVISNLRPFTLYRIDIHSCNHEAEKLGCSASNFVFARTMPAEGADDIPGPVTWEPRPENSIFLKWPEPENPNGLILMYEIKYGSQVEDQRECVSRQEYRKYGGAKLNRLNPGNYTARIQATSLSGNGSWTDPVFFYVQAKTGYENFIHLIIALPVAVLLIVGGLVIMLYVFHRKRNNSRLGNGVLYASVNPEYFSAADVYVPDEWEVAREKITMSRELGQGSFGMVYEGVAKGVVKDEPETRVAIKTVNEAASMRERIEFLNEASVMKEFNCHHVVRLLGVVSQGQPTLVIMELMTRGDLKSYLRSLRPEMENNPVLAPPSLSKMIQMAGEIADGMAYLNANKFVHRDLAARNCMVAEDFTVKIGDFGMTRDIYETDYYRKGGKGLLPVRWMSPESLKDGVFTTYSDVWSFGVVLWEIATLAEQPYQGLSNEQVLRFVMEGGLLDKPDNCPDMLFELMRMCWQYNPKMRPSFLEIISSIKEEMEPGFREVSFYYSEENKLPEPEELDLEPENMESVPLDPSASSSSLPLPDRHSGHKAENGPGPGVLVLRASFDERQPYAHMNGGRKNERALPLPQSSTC

## MAB391 (antibody)
IGF-1R on cells (human) [1]
  maximum growth inhibition, 786-O cells (8 nM), serum-free, IGF-1 100 ng/mL, MTS: 34%
  maximum growth inhibition, ACHN cells (200 nM), serum-free, IGF-1 100 ng/mL, MTS: 48%
  maximum growth inhibition, Caki-2 cells (8 nM), serum-free, IGF-1 100 ng/mL, MTS: 50%
IGF-1R on cells (human) [2]
  % binding of 125I-IGF-1 to MCF-7L: 38%
IGF-1R on cells (human) [3]
  % binding of 125I-IGF-1 to MCF-7L: 54%

B1: hR1 (antibody, IgG1, V domains shown)
VH: QVQLQESGGGVVQPGRSLRLSCSASGFTFSDYYMYWVRQAPGKGLEWVAYITNYGGSTYYPDTVKGRFTISRDNAKNTLFLQMDSLRPEDTGVYFCARQSNYDYDGWFAYWGQGTPVTVSS
VL: DIQLTQSPSSLSASVGDRVTITCKASQEVGTAVAWYQQKPGKAPKLLIYWASTRHTGVPSRFSGSGSGTDFTFTISSLQPEDIATYFCQQYSNYPLTFGQGTKVEIKR
notes: also called humanized anti-IGF-1R; hR1 IgG
IGF-1R on cells (human) [1]
  concentration giving complete receptor down-regulation: 10 nM
  maximum growth inhibition, 786-O cells (8 nM), serum-free, IGF-1 100 ng/mL, MTS: 26%
  maximum growth inhibition, ACHN cells (200 nM), serum-free, IGF-1 100 ng/mL, MTS: 3%
  maximum growth inhibition, Caki-2 cells (8 nM), serum-free, IGF-1 100 ng/mL, MTS: 33%
IGF-1R on cells (human) [4]
  % Positive: 10.7%
  MFI: 3.65
[5]
  binding result: binds
IGF-1R on cells (human) [6]
  % Positive: 89.2%
  MFI: 9.93
IGF-1R on cells (human) [7]
  % Positive: 30.4%
  MFI: 5.33

B2: 1R-E1 (bispecific antibody, part only; not given: hRS7 Fab-DDD2 module, not shown: a dimerising Fc or GST)
heavy (part 1 of 2): B1 VH
heavy (part 2 of 2): GSGGGGSGGCGQIEYLAKQIVDNAIQQAGC
light: B1 VL
IGF-1R on cells (human) [1]
  concentration substantially reducing the level of IGF-1R in MCF-7, DU-145 and LnCap: 0.1 nM

B3: Hex-hR1 (antibody, V domains shown, not shown: a dimerising Fc or GST; small tags and cut ends)
VH: B1 VH
VL: DIQLTQSPSSLSASVGDRVTITCKASQEVGTAVAWYQQKPGKAPKLLIYWASTRHTGVPSRFSGSGSGTDFTFTISSLQPEDIATYFCQQYSNYPLTFGQGTKVEIK
modifications: DNL complex: one IgG-AD2 and four Fab-DDD2, disulfide-locked through AD2 and DDD2. All six Fabs carry the same hR1 VH/VK [CUT]
IGF-1R on cells (human) [1]
  maximum growth inhibition, 786-O cells (8 nM), serum-free, IGF-1 100 ng/mL, MTS: 35%
  maximum growth inhibition, ACHN cells (200 nM), serum-free, IGF-1 100 ng/mL, MTS: 48%
  maximum growth inhibition, Caki-2 cells (8 nM), serum-free, IGF-1 100 ng/mL, MTS: 43%

B4: cR1 (antibody, from another filing, V domains shown)
VH: EVKLVESGGGLVQPGGSLKLSCATSGFTFSDYYMYWVRQTPEKRLEWVAYITNYGGSTYYPDTVKGRFTISRDNAKNTLYLQMSRLRSEDTAMYFCARQSNYDYDGWFAYWGQGTTVTVSS
VL: DIVMTQSHKFMSTSVGDRVSITCKASQEVGTAVAWYQQKPGQSPKLLIYWASTRHTGVPDRFTGSGSGTDFTLTISNVQSEDLADYFCQQYSNYPLTFGAGAKLELKR
[8]
  Kd: 0.1 nM
